Experimental data: article PMC7069968, “Cholesteryl α-D-glucoside 6-acyltransferase enhances the adhesion of Helicobacter pylori to gastric epithelium” (Communications Biology, 2020)

Columns and labels:
[1] = test system: CCCCCCCCCCCCCC(=O)OC[C@H](COP(=O)(O)OCCN)OC(=O)CCCCCCCCCCCCC; assay: purified protein; settings: Ca2+ acyl donor; phospholipase A1-type, a1-position acyl chain transferred to CG
[2] = test system: CC(C)CCC[C@@H](C)[C@H]1CC[C@H]2[C@@H]3CC=C4C[C@@H](O[C@H]5O[C@H](CO)[C@@H](O)[C@H](O)[C@H]5O)CC[C@]4(C)[C@H]3CC[C@]12C; assay: purified protein; settings: Ca2+ acyl acceptor; sequential rapid-equilibrium random bi-bi mechanism

For “cholesteryl α-D-glucopyranoside 6′-acyltransferase (CGAT) (Helicobacter pylori 26695)”, the Km [1] was 290 µM and the Km [2] was 26.0 µM.
